Measurements taken from the Human Domainome abundance scans (Beltran et al. 2025).

B1: Kinesin-like protein KIF16B, residues 1213 to 1273; numbered along this chain, Q96L93 (parent)
chain: ETWTVFRRYSRFREMHKTLKLKYAELAALEFPPKKLFGNKDERVIAERRSHLEKYLRDFFS

Variants of: B1
Test: abundance fitness (aPCA) (normalised: wild type 0, dead -1); higher = more abundant; growth selection in yeast, the domain comes from the species named
Details: Homo sapiens

Abundance fitness, by site and new letter:
D41: S 0.065 | T -0.101 | V 0.159 | W 0.354 | Y 0.057
E42: A -0.011 | C 0.044 | D -0.031 | F 0.224 | G 0.266 | H -0.476 | I 0.053 | K 0.227 | L 0.164 | N 0.306 | Q -0.056 | R 0.122 | S 0.186 | T 0.078 | V -0.012 | W 0.268 | Y -0.242
R43: A 0.033 | C -0.097 | D -0.31 | E -0.22 | F -0.249 | G 0.209 | H 0.129 | I -0.227 | K 0.017 | L -0.282 | M -0.32 | N 0.137 | P -0.004 | Q 0.003 | T 0.018 | V -0.099 | W -0.155 | Y -0.489
V44: A 0.029 | C 0.316 | D 0.24 | E -0.145 | G 0.188 | K 0.18 | N -0.06 | P 0.299 | Q 0.047 | R 0.117 | S 0.351 | T 0.263 | W 0.112 | Y -0.215
I45: A 0.177 | C 0.133 | D 0.057 | E 0.107 | F 0.158 | G 0.264 | H 0.11 | K 0.281 | L 0.051 | M 0.062 | N 0.031 | P 0.271 | Q 0.174 | R 0.133 | T 0.158 | V 0.009 | W 0.35 | Y -0.274
A46: C 0.093 | D -0.01 | E 0.037 | F -0.27 | G 0.211 | K 0.186 | L -0.324 | M -0.073 | P 0.256 | Q -0.03 | R 0.131 | S 0.147 | T 0.242 | V -0.057 | W -0.176 | Y -0.262
E47: A -0.307 | C 0.038 | D 0.183 | F 0.117 | G 0.243 | H 0.129 | I -0.2 | K -0.011 | L -0.274 | M -0.053 | N 0.099 | P 0.118 | Q -0.175 | R 0.099 | S 0.091 | T 0.132 | V -0.173 | W 0.014 | Y -0.223
R48: C -0.148 | D -0.186 | E -0.374 | F 0.087 | G 0.108 | I 0.123 | K -0.061 | M 0.159 | P 0.113 | Q -0.291 | S -0.018 | T -0.363 | V -0.05 | W 0.275 | Y -0.266
R49: A -0.166 | C 0.247 | G -0.01 | I 0.367 | K 0.504 | L 0.279 | M -0.477 | P -0.273 | Q -0.201 | S -0.145 | T -0.286 | V -0.41 | W -0.064 | Y -0.68
S50: A -0.213 | C 0.256 | D -0.11 | E -0.696 | F -0.117 | G -0.1 | H -0.039 | K -0.133 | L -0.042 | N 0.05 | P 0.045 | Q -0.545 | R -0.301 | T -0.056 | V -0.36 | W 0.117 | Y -0.66
H51: A 0.043 | C -0.359 | D -0.778 | E -0.379 | G 0.248 | I -0.294 | K 0.376
